Data set [1] has as its target FMRP RNA-AE (KH1 GKKG / KH2 RNA-KO, KH1-2 di-domain) (human (hFMRP), UniProt Q06787 216-425, T236K;H237K;K299D;N300D;del331-396). As to the kind of experiment: NMR titration; Kd value only in figure; NMR titrations: 50 uM 15N-protein, 10 mM phosphate pH 6.9, 40 mM NaCl, 0.5 mM TCEP, protein:RNA 1:0 to 1:12; temperature not given. As to conditions: protein: recombinant; tags: N-terminal 6xHis, cleaved with HRV 3C; single strand.

Data set [2] has as its target FMRP RNA-WT (KH1 WT / KH2 RNA-KO, KH1-2 di-domain) (human (hFMRP), UniProt Q06787 216-425, K299D;N300D;del331-396). As to the kind of experiment: NMR titration; unit prefix lost in text (printed M), uM inferred; NMR titrations: 50 uM 15N-protein, 10 mM phosphate pH 6.9, 40 mM NaCl, 0.5 mM TCEP, protein:RNA 1:0 to 1:12; temperature not given. The settings on record: protein: recombinant; tags: N-terminal 6xHis, cleaved with HRV 3C; single strand.

For orientation: Kd means a measure of binding affinity in units of concentration.

B1: GAGAC (ssRNA)
RNA: GAGAC
Consider B1, for which the binding signal in data set [1] was about 3 fold tighter than GAGCC.

B2: UAGAC (ssRNA)
RNA: UAGAC
Consider B2, for which the binding signal in data set [1] is 2.5 fold weaker than UGGAC.

B3: GAGCC (ssRNA)
RNA: GAGCC
B3: in data set [1], the binding signal was about 3 fold weaker than GAGAC.

B4: UGGAC (ssRNA)
RNA: UGGAC
In the case of B4, in data set [2], the Kd came out at 418 ± 57.9 µM.

The values above are taken from paper PMC10326445, “Affinity-enhanced RNA-binding domains as tools to understand RNA recognition”.
